Measured values taken from the DeepSol protein solubility set.

experiment: soluble on expression in E. coli; label from the status in PepcDB or PDB records

Sequence | soluble on expression in E. coli
MYSANRSHRAETRNRSKDELRKVINSLEKVRRWEKKLVLIKDTNIRIYKWVPVSAQNIMAPPKIKEVKEVDEESNQVPSAENSQDSTSVTQPPPQFDINEDSNFSTGDHFDSDSNQTFEPQNYQGGATGSTDFSSMRDAEMTSKQP | not soluble
MYSEERRRQIASLTAVEGRVNVTELAARFDVTAETIRRDLAVLDREGVVHRVHGGAVANQTFQTAEFSLDTRSRSASGAKNSIAHAALSYLPEAQGGLFLDAGTTTAALAELLAAQPFAKHWSIVTNSLSIALTLANSGLDEIQLLGGSVRAITQAVVGDTALRTLALMRADVAFIGTNALTIDHGLSTADSQEAAIKSAMITNAHKVVVLCDSTKMGTDYLVSFGSISDIDVIITDANAPESFVKALRDRDVEVIIA | not soluble
MYVGYLGPSGSFTHNAALKAFPEASLVSLGTITEVIKSYEEGRVDYAVIPVENSIEGSVHESLDYLFHQADIRAVAEIVQPIKQQLMASKHHAKIEKIFSHPQAIAQGKKYIKDHFPHAKIETTASTAFAARYVADNPDQPYAAIAPHAAAKEYGLEILAKDIQEIEKNYTRFWLLGSTVP | not soluble
MYYDVLKTFIAVVEEKNFTKAAEKLMISQPSVSLHIKNLEKEFQTALLNRSPKHFTTTPTGDILYQRAKQMVFLYEQAKAEIYAHHHYVKGELKIAASFTIGEYILPPLLAQLQKLYPELNLDVMIGNTEEVSERVRMLQADIGLIEGHTNENELEIEPFMEDEMCIAAPNQHPLAGRKEISISDLQNEAWVTREKGSGTREYLDHVLSSNGLRPKSMFTISSNQGVKEAVINGMGLSVLSRSVLRKDLIHREISILHINNFSLKRKLSYIHSPLMENTKNKEIFITMLKSNYQSQLLK | soluble
NALHVINMVGTRHATPYGQDICTRFLADLSVLCPNALIVSGLAYGIDIHAHRAALQNHFKTIGVLAHGLDRIYPAEHRKTAVSMLEQGGLLTEFTSGTNPDRQNFVKRNRIVAGMSDATVVIESAAKGGALITAELAESYHRDCFAFPGRCNDEYSIGCNNLIRKNQAVLITSAEDLVKAMGWESSPKTEKT | not soluble
NDAFRWKTQFNFSTNKNKIIKLHPDLKTFVYGDESFSSSYSMRLVEGGSFGDIYGKAFERDENGKVAFTTDKDGDKIPNVIGGGNTEKVGNCNPDFMLGWSNTFTYKGFSLYFLIDGRFGGDVLSQTQAELDQRGVSLNSGKARDAGYINIDGTQVKPRKFYTAVSGRDGCTEYYMYDATNIRLRELSLGYSLPQSWLAKAGGAFKDVQLSFVARNLFFISKKAPFDPDAVLSTGNDNQGIDVFGMPTTRSLGFNIKFTF | not soluble
NGFQKEMRTRILGMVPHATISAAQPLDDWQTVANAALRHREVVGAAPFAELQGMLSYKGNMLPVLVNGIDPQEERKVSIVGEHIVQGSLDDLKPGEFGIVLGEITARRFHVNVGDKLTLIVPEATSAPGGITPRMQRFTIVALFKVGAELDNSLALIDIADAGQLLRLQPGQVPSVRLELKDLYQSPQVAAKVVKELGQGFRSSDWTRTQGSLFNAMKMEKT | not soluble
NGGIPHDNLVLIRMKPDENGRFGFNVKGGYDQKMPVIVSRVAPGTPADLCVPRLNEGDQVVLINGRDIAEHTHDQVVLFIKASCERHSGELMLLVRPNAVYDVVEE | soluble
NISYFSIGSGTPIIFLHGLSLDKQSTCLFFEPLSNVGQYQRIYLDLPGMGNSDPISPSTSDNVLETLIEAIEEIIGARRFILYGHSYGGYLAQAIAFHLKDQTLGVFLTCPVITADHSKRLTGKHINILEEDINPVENKEYFADFLSMNVIINNQAWHDYQNLIIPGLQKEDKTFIDQLQNNYSFTFEEKLKNINYQFPFKIMVGRNDQVVGYQEQLKLINHNENGEIVLLNRTGHNLMIDQREAVGFHFDLFLDE | not soluble
NKNFTWTTELTVSRNKNKVEKLPNTVQGFDTRNLTSIQEGYSLYSYWVYNQTGVNSQTGAIEIEDVNKDGKITTADRKIMGSVFPKLFGGFNNKFTYKGIDLGIFFIYSYGNKTWNQNEALGEQGGTLGDNRVLMAGQLDRWTTPGQETMVPKLTAANYQYFEVSRFLEDASFIRLRSLTLGYTLPKKWSSAVKTEKIRFYFTGTNLLLITKYTGSDPESNLGQGNLQGYDYDTPPQPRTIQFGLNLTL | not soluble
NLSSSESQESTGQHQVTVAAVQGNVPRLGLDFNAQRRAVLANHVQETRKLTEQVDFIVWPENSSDVDPFADVRARNLINSAVASVQAPIVVGTVTTDEVGARNAMVVFDPETGEGDWHVKKFLQPFGEWMPWRDFFRKFSSLVDLAGDFKPGEGSGVVRVHAAQLGETVKLGISTCYEVAFDQAGRDAVLAGAQILATPTNNATFGFTDMTYQQLAMSRMRAIELDRAVVVAATSGVSAIVTPRGEVLQHSKIFESATLVQSLPLKETITFSARYGTLLE | not soluble
NTLTSQIEQLQSLAHELLYLGVDGAPIYTDHFRQLNKEVLEQSDALYPQRGATPEEEANICLALLMGYNATIYNQGDKEEKKQVVLNRCWDVLDQLPATLLKCQLLTYCYGEVFE | not soluble
PAAGPSRVRQNFHPDSEAAINRQINLELYASYVYLSMAYYFSRDDVALNNFSRYFLHQSREETEHAEKLMRLQNQRGGRIRLQDIKKPEQDDWESGLHAMECALLLEKNVNQSLLELHALASDKGDPHLCDFLETYYLNEQVKSIKELGDHVHNLVKMGAPDAGLAEYLFDTHTLGNENKQN | soluble
PDLSTWNLTIPQGRPAITISTSQLQRDYRSDYFQRTADGIRFWVPVNGSHTRNSEFPRSELRETLSSGRPYNWRYARADNWLEATLRIEAVPSTRRMIIGQIHSDGSNSGQAAPLVKLLYQLRLDQGRVQALVRERPDDGGTRAYTLMDGIPLGQPFSYRIGVSRSGLLSVSVNGSALEQQLDPQWAYQGLYFKAGLYLQDNRGPSSEGGRATFSELRVSHQ | soluble
PESPGGRGIKPDTCPAPGPRSPLQLPLAPDAESGSSGRRPGEPRDPLKLQQLQNQIRLEQEAGARQPPPAPRSAPPSPPFPPPPAFPELAACTPPASPEPMSALASRSAPAMQSSGSFNYARPKQFIAAQNLGPASGHGTPASSPSSSSLPSPMSPTPRQFGRAPVPPFAQPFGAEPEAPWGSSSPSPPPPPPPVFSPTAAFPVPDVFPLPPPPPPLPSPGQASHCSSPATRFGHGQTPAAFLSALLPSQPPPAAVNALGLPKGVTPAGFPKKASRTARIASDEEIQGTKDAVIQDLERKLRFKEDLLNNGQPRLTYEERMARRLLGADSATVFNIQEPEEETANQEYKVSSCEQRLISEIEYRLERSPVDESGDEVQYGDVPVENGMAPFFEMKLKHYKIFEGMPVTFTCRVAGNPKPKIYWFKDGKQISPKSDHYTIQRDLDGTCSLHTTASTLDDDGNYTIMAANPQGRISCTGRLMVQAVNQRGRSPRSPSGHPHVRRPRSRSRDSGDENEPIQERFFRPHFLQAPGDLTVQEGKLCRMDCKVSGLPTPDLSWQLDGKPVRPDSAHKMLVRENGVHSLIIEPVTSRDAGIYTCIATNRAGQNSFSLELVVAAKEAHKPPVFIEKLQNTGVADGYPVRLECRVLGVPPPQIFWKKENESLTHSTDRVSMHQDNHGYICLLIQGATKEDAGWYTVSAKNEAGIVSCTARLDVYTQWHQQSQSTKPKKVRPSASRYAALSDQGLDIKAAFQPEANPSHLTLNTALVESEDL | soluble
PEYSLFVGDLTPDVDDGMLYEFFVKVYPSCRGGKVVLDQTGVSKGYGFVKFTDELEQKRALTECQGAVGLGSKPVRLSVAIPKASRVKPVE | soluble

Sequence | soluble on expression in E. coli
PFINIKLVPENGGPTNEQKQQLIEGVSDLMVKVLNKNKASIVVIIDEVDSNNYGLGGESVHHLRQKN | soluble
PFSWMRYIVISRKDLEEDGREILIHEMAHIQNRHSIDLLVADICIFFQWFNPGIWLLKQELQNIHEYEADETVINEGIDAKDYQLLLI | not soluble
PHSPLAEGRREVAKVLTMASEALTQVSTAMRTGDVDGIREALRKARGSQAAINAMIAAAKSGQEEVAVSPFLWSSKARVRSFVRILHPVDNAMRNTRVLARRAQVLIEDGDEVSEAQIQLIDDLVSVTSAVAAIYDRRGAASEAAEIPELVRTLQTMAARAGLSVAEGKVLSAQVVLAQTRSIIVDLLQVCGMSRASAVASLALTSESPAYPSEIRDDPNH | soluble
PISSEQKQLISQLTDLGYSFDGLQTGYPGGEPDWHYVKELSGIEEKDLIKSFSKKGKPLVKKAKTFGIKLKKLKRDELSIFKEITSATSDRREYSDKSLDYYQDFYDAFGDNADFMVATLNFQDYFDHLESNQAKLRARIVKLQADLETNPTSEKKQNQLRELSSQLETFDVRKGEATAFIDKYGQEDIVLAGSLFVYTPQEAVYLFSGSYPEFNKFYAPALLQEYVMTQAIKRGIGFYNFLGIMGIFDGSDGVLRFKQNFNGYIVRKMGTFRYYPQPLKYKAIQGVKKLLGRN | not soluble
PIVLFPGQQATLSPQGISSPSPFDHTAITAWLRNQLVFYDTPLAEVVDTLNRHRHGRIFITNQKLKALKVSGVFSTDEPDTALDVMINTLPIHLLRLTDYLVLI | not soluble
PKEQSMKIVVIGGTGLIGSNVVNRLRRDGHETVAASPGTGVNTITGEGLAQALDGAQVVVDVANSPSFEDQAVMAFFETSGRTLLAAEAAAGVTHHLALSVVGTDRLADSGYFRAKVAQEALIKASKVPYTILRATQFFE | not soluble
PKYTIVDKETCIACGACGAAAPDIYDYDEDGIAYVTLDDNQGIVEVPDILIDDMMDAFEGCPTDSIKVADEPFDGDPNKFE | soluble
PLSEAELALFDPYSKEESTGPSPTHTGELAAIEVESKRLDQEPWEPGGQEEEEAEDGEPAPAYLGQATELITQALRNEKAGAYAAALQGYQDGVHILLQGVSGDPSPARREGVKKKAAEYLKRAEMLHTHLP | soluble
PMFEAAYDFPGSGSPSELPLKKGDVIYITREEPSGWSLGKLLDGSKEGWVPTAYMKPH | soluble
PNAIVNRSIPEGVDVFEISGPLFFGAASKFKDAMHVVEKAPSIRILRMRKVMSIDATGLNMLKELFNDCRKSGTTLILSGVHTQPLFAMQQYGLADEIGEENIFGNIDDALDRARSLLGLPVQGRPAGF | not soluble
PNEKFCFEGFLPQKKGRMTKLKSLVDEHRTMVFYESPHRLLKTLTQFAEYFGPERQVSVSREISKIHEETVRGTLSELIEHFTATDPRGEIVIVLAGIDD | not soluble
PNGDKVHAWYWQSPRRDAPTVLYLHGARWNLNGSAFRMEGWTRMGYSMLAIDYRGFGQSTPLLPSEQSASQDAAAALQELARRQPDPARRFIYGHSLGGAIAIDLAARPDLPPFAGLIVESSFTSIGAMLGTMKWGWVPGATLLVTQPFASVDKLAALTTPMLLLHGTADRVVPHTMSDELYRAAQQVPADLKRLVKIEGASHSGAIRSGRIYEDAVADFVRDAGRGYAGRQGAPTPLTASRPGT | not soluble
PNRSISPSALQDLLRTLKSPSSPQQQQQVLNILKSNPQLMAAFIKQRTAKYVANQPGMQ | soluble
PPIILQGPANQTLAVDGTALLKCKATGDPLPVISWLKEGFTFPGRDPRATIQEQGTLQIKNLRISDTGTYTCVATSSSGETSWSAVLDVTESG | soluble
PQDAVIWLGAEKTGLKLTNSSNTFEGVIDGVDITVTKAQTSGETAIGLGIGADDEATKEQLNKFVDAYNTLISTIDEHTQIGSEDKKRGVLASDPTMRSIESQLSSLVRGEHGGMRLSEIGVTLDRHGKLKVDQEKFAEAQKNNSAGLEAMFNGDGALLDSMDAMAEPFLKFSSGAFKSRKEALQANLDRLSDKQTTLERKYDMSYKRYLKQFTQMNTLMTQMNQ | not soluble
